PMC3827224

Biological target: rhodamine-labelled fibronectin from human plasma (human)

Substance | decrease of rhodamine-fibronectin incorporation into the extracellular matrix of HDF fibroblasts (fluorescence plate assay), 500 nM bead-immobilized peptide, after 12 and 24 hours [%]
F1 functional upstream domain (FUD) peptide of Streptococcus pyogenes F1 (domain or fragment) | 80
FnBPA-derived peptide containing fibronectin-binding repeats 1-11 (FnBR1-11) (domain or fragment) | 90
